Consider two molecules from US20150183883A1 (Genentech, published 2015).

The assay deals with T1, endothelin B receptor (ETBR) on the surface of UACC-257X2.2 melanoma cells (human, UniProt P24530 27-442).
T1 construct: Endogenous ETBR on UACC-257X2.2 melanoma cells (parental and resistant lines); also called EDNRB; EDNBR
T1 sequence: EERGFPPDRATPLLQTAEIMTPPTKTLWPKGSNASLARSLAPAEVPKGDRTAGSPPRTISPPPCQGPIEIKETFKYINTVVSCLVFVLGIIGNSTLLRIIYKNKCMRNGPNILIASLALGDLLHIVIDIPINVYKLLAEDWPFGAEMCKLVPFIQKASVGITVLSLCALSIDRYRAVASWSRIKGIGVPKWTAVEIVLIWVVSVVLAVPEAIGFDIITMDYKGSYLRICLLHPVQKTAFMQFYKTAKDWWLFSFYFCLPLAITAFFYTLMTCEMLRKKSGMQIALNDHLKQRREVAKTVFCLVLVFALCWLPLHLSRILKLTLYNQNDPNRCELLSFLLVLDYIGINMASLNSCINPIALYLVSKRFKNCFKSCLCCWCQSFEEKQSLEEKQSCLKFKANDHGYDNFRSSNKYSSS
As to the kind of experiment: flow cytometry (FACS) on parental and resistant UACC-257X2.2 cells. How it is done: Expression of ETBR on the surface of the in vivo- and in vitro-derived resistant UACC-257X2.2 cells and the parental UACC-257X2.2 cells was then determined by FACS.

B1: hu5E9.v1 (antibody, human IgG1, kappa, V domains shown)
VH: EVQLVESGGGLVQPGGSLRLSCAASGYTFTSYWMQWVRQAPGKGLEWIGTIYPGDGDTSYAQKFKGRATLSTDKSKNTAYLQMNSLRAEDTAVYYCARWGYAYDIDNWGQGTLVTVSS
VL: DIQMTQSPSSLSASVGDRVTITCKSSQSLLDSDGKTYLNWLQQKPGKAPKRLIYLVSKLDSGVPSRFSGSGSGTDFTLTISSLQPEDFATYYCWQGTHFPYTFGQGTKVEIKR
notes: Naked antibody used as FACS staining reagent and detected with an anti-human Alexa 488 conjugate; also called anti-ETBR antibody; humanized 5E9 version 1
For B1, the binding result is “binds”.

B2: ch5E9 (antibody, human IgG1, kappa, V domains shown)
VH: QVQLLQSGAELARPGASVKLSCKASGYTFTSYWMQWVKQRPGQGLEWIGTIYPGDGDTSYAQKFKGKATLTTDKYSSTAYMQLSSLASEDSAVYYCARWGYAYDIDNWGQGTLVTVSS
VL: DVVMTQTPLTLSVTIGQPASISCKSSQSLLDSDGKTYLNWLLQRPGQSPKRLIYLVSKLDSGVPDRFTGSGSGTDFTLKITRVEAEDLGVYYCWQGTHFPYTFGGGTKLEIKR
notes: Naked antibody used as FACS staining reagent and detected with an anti-human Alexa 488 conjugate; also called anti-ETBR antibody; chimeric 5E9
As to B2, the binding result is on record as “binds”.
